Our source for the stoichiometry N values is paper PMC8434428.

This experiment deals with Aca2 (anti-CRISPR associated protein 2) from Pectobacterium carotovorum bacteriophage ZF40 (Pectobacterium carotovorum bacteriophage ZF40). Description: SEC; final size exclusion run of untagged Aca2 on HiPrep 16/60 Sephacryl S-200 in buffer S [50 mM Tris-HCl (pH 7.9), 500 mM KCl, 10% glycerol]; oligomer judged from the elution volume.

“Aca2 (anti-CRISPR associated protein 2) from Pectobacterium carotovorum bacteriophage ZF40 (natural protein)” registered a stoichiometry N of 2.
